This experiment deals with rat α1B+β1b calcium channel (N-type calcium channel α1B subunit coexpressed with β1b subunit) (rat) (UniProt Q02294). Kind of experiment: cell-based or functional assay.

From US20050095678A1 come the findings set out here.

Chain of rat α1B+β1b calcium channel (N-type calcium channel α1B subunit coexpressed with β1b subunit) (rat) (Q02294 whole entry, chain 1 of 2): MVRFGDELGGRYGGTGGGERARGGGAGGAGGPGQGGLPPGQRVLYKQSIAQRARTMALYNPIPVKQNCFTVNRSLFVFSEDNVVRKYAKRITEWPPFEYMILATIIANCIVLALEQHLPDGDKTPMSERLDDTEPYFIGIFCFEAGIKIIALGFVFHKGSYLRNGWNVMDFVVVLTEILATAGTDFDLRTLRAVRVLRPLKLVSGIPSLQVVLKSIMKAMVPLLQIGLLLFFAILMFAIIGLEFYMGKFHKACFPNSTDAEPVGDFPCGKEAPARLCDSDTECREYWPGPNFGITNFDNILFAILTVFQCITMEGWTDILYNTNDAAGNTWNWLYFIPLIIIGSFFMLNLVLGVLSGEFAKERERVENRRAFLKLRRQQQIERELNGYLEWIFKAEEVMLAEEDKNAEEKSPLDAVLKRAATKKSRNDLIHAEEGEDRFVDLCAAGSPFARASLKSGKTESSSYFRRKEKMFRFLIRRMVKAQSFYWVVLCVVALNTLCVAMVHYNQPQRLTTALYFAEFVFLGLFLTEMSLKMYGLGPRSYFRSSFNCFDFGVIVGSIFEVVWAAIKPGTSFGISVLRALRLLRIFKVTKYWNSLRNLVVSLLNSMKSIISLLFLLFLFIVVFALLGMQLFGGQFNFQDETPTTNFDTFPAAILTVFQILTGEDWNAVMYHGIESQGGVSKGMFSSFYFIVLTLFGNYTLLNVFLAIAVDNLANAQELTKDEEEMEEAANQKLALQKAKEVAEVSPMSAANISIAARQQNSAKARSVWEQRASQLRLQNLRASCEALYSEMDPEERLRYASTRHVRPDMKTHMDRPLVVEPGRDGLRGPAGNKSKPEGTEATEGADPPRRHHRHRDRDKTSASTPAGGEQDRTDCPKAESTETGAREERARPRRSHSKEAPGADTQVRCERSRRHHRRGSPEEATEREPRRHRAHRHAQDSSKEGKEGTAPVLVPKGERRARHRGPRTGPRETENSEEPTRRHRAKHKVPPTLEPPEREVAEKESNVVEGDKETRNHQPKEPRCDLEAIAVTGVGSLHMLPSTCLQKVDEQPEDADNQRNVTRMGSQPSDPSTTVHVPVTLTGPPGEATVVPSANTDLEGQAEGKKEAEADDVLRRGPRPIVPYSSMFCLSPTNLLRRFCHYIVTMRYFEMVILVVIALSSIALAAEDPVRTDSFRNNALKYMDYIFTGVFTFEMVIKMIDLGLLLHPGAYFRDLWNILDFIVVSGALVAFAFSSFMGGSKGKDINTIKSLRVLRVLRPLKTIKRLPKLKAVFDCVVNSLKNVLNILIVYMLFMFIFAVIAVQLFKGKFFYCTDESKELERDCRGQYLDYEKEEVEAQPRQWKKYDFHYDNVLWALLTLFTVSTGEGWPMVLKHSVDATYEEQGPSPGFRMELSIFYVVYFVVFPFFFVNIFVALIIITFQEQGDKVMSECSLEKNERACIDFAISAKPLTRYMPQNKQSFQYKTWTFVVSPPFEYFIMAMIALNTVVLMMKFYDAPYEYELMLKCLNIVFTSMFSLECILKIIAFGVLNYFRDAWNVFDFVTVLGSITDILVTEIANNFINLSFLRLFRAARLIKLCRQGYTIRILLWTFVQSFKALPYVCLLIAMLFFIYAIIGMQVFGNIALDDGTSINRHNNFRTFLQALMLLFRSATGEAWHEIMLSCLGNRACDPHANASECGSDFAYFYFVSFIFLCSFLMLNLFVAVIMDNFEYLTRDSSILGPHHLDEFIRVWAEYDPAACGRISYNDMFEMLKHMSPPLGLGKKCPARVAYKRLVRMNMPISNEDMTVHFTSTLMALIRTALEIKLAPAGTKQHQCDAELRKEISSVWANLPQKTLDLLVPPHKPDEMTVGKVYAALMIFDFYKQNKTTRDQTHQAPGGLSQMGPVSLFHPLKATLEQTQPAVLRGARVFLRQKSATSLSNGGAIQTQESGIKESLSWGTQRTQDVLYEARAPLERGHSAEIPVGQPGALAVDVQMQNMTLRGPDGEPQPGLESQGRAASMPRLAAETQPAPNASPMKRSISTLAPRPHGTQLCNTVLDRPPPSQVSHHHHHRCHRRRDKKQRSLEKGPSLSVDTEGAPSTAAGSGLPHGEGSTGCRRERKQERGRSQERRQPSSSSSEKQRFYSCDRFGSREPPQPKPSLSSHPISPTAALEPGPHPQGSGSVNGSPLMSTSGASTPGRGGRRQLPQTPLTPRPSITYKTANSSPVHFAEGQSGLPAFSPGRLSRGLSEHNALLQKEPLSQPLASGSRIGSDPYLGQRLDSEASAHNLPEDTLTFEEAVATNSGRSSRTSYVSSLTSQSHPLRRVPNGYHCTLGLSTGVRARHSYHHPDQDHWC
Chain of rat α1B+β1b calcium channel (N-type calcium channel α1B subunit coexpressed with β1b subunit) (rat) (P54283 whole entry, chain 2 of 2, further chain): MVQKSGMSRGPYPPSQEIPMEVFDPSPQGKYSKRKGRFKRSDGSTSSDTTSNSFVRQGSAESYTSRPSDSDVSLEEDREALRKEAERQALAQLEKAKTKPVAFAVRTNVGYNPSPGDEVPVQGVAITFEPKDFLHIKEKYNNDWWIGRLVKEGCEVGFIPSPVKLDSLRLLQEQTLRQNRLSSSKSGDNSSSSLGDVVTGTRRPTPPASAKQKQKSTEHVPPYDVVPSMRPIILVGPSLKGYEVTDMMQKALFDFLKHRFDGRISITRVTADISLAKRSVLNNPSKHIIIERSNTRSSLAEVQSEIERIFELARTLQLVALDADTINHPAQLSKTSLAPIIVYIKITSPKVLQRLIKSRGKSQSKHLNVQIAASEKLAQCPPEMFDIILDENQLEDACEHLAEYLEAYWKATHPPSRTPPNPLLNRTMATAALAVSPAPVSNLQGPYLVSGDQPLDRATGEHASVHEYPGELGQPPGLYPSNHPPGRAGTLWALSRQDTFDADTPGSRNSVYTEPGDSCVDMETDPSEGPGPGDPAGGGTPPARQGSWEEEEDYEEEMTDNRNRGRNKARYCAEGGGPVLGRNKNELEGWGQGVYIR

For “rat brain α2δ-2 calcium channel subunit (from UniProt Q8CFG6 19-1157)”, the average current density (Ipeak/cell capacitance), whole-cell patch clamp, fold increase on coexpression stood at 4 fold.
